B1: FAM46C (parent)
chain: FDHLQNRLIATKNPEEIRGGGLLK
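Also: lentivirally expressed fusions sorted by FACS into six bins by GFP to DsRed ratio, PSI derived from sequencing read proportions per bin multiplied by bin number.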

Variants of: B1
Test: protein stability index of a GFP-peptide fusion (GPS, HEK-293T) (PSI 1-6); higher = more stable
Details: c terminus: a fixed tail appended
Work on Q5A yielded a protein stability index of 4.57. With Q5H the protein stability index was 3.87. Q5E showed a protein stability index of 3.82. Q5C gave a protein stability index of 3.96. Work on Q5L yielded a protein stability index of 2.17. In the case of Q5V, the protein stability index is reported as 3.33. With Q5M the protein stability index was 2.92. In the case of Q5P, the protein stability index is reported as 3.63. Q5W showed a protein stability index of 1.08. Work on Q5S yielded a protein stability index of 4. With Q5R the protein stability index was 2.86. Variant Q5I has a protein stability index of 3.17. In the case of Q5K, the protein stability index is reported as 3.67. Q5N showed a protein stability index of 3.44. In the case of Q5T, the protein stability index is reported as 3.99. Q5F gave a protein stability index of 3.27. N6Q showed a protein stability index of 4.1. N6P showed a protein stability index of 4.46. Variant N6E has a protein stability index of 3.87. In the case of N6S, the protein stability index is reported as 3.31. In the case of N6I, the protein stability index is reported as 2.56. Work on N6M yielded a protein stability index of 3.32. N6K showed a protein stability index of 3.81. Variant N6G has a protein stability index of 3.03. In the case of N6A, the protein stability index is reported as 3.58. N6V showed a protein stability index of 2.55. With N6Y the protein stability index was 2.95. Variant N6T has a protein stability index of 1.91. N6C gave a protein stability index of 1.88. N6F showed a protein stability index of 2.38. Variant R7I has a protein stability index of 3.67. For R7K, the protein stability index was 4.19. Work on R7C yielded a protein stability index of 3.37. Variant R7Y has a protein stability index of 2.99. R7D showed a protein stability index of 4.65. R7F gave a protein stability index of 3.82. For R7A, the protein stability index was 4.42. Variant R7G has a protein stability index of 3.09. R7H showed a protein stability index of 4.35. For R7P, the protein stability index was 4.07. For R7Q, the protein stability index was 3.64. With R7E the protein stability index was 4.55. In the case of R7V, the protein stability index is reported as 3.43. Variant R7M has a protein stability index of 3.54. Work on R7L yielded a protein stability index of 2.94. Work on T11D yielded a protein stability index of 3.75. With T11N the protein stability index was 4.01. With T11R the protein stability index was 3.97. Work on T11F yielded a protein stability index of 3.73. Variant T11V has a protein stability index of 3.74. With T11A the protein stability index was 3.55. With T11M the protein stability index was 3.7. In the case of T11L, the protein stability index is reported as 4.29. T11E gave a protein stability index of 4.71. Variant T11C has a protein stability index of 3.41. For T11Y, the protein stability index was 3.31. T11W gave a protein stability index of 3.98. Variant T11S has a protein stability index of 3.56. For T11P, the protein stability index was 3.63. For T11Q, the protein stability index was 4.2. Variant D2Y has a protein stability index of 2.8. For D2S, the protein stability index was 4.75. For D2R, the protein stability index was 3. D2T showed a protein stability index of 1.93. D2K gave a protein stability index of 3.24. Work on D2I yielded a protein stability index of 1.04. D2L gave a protein stability index of 2.33. For D2M, the protein stability index was 2.17. In the case of D2P, the protein stability index is reported as 4.23. For D2H, the protein stability index was 3.1. Work on D2Q yielded a protein stability index of 4.32. I9G gave a protein stability index of 4.3. With I9C the protein stability index was 4.43. For I9D, the protein stability index was 3.5. Variant I9L has a protein stability index of 4.44. I9W gave a protein stability index of 2.16. Work on I9F yielded a protein stability index of 3.53. I9T showed a protein stability index of 4.4. Variant I9R has a protein stability index of 4.05. For I9A, the protein stability index was 4.86. For I9M, the protein stability index was 3.58. I9K gave a protein stability index of 4.27. I9S gave a protein stability index of 3.98. For I9Y, the protein stability index was 3.56. In the case of I9H, the protein stability index is reported as 3.05. With I9Q the protein stability index was 4.57. For I9N, the protein stability index was 4.06. With L8N the protein stability index was 4.45. Variant L8C has a protein stability index of 4.03. For L8F, the protein stability index was 3.23. In the case of L8S, the protein stability index is reported as 4.62. L8D showed a protein stability index of 5.05. L8G showed a protein stability index of 4.39. In the case of L8W, the protein stability index is reported as 4. L8K gave a protein stability index of 4.16. Work on L8E yielded a protein stability index of 5.03. Variant L8P has a protein stability index of 4.72. L8A showed a protein stability index of 4.43. Work on L8V yielded a protein stability index of 2.97. With L8I the protein stability index was 3.66. For L8Q, the protein stability index was 5.05. L8M showed a protein stability index of 3.99. For L8R, the protein stability index was 3.72. With L8T the protein stability index was 4.34. Work on L8Y yielded a protein stability index of 4.4. Work on H3E yielded a protein stability index of 4.28. H3D gave a protein stability index of 4.52. Work on H3F yielded a protein stability index of 2.06. In the case of H3C, the protein stability index is reported as 3.63. In the case of H3I, the protein stability index is reported as 3.59. H3Q showed a protein stability index of 3.51. With H3P the protein stability index was 4. For H3G, the protein stability index was 3.79. In the case of H3M, the protein stability index is reported as 3.71. With H3A the protein stability index was 3.72. H3N gave a protein stability index of 3.05. Work on H3L yielded a protein stability index of 3.25. Variant H3S has a protein stability index of 3.17. Work on H3R yielded a protein stability index of 3.73. For H3W, the protein stability index was 2.99. With H3V the protein stability index was 3.87. For L4W, the protein stability index was 3.8. Work on L4I yielded a protein stability index of 3.24. Variant L4A has a protein stability index of 3.78. For L4D, the protein stability index was 4.02. With L4R the protein stability index was 4.28. L4T showed a protein stability index of 4.27. In the case of L4M, the protein stability index is reported as 4.04. Variant L4G has a protein stability index of 5.22. Variant L4V has a protein stability index of 3.54. L4Y showed a protein stability index of 3.85. L4H gave a protein stability index of 4.79. Variant L4P has a protein stability index of 4.62. For L4N, the protein stability index was 4.14. Work on L4S yielded a protein stability index of 4.8. With L4Q the protein stability index was 4.47. In the case of L4F, the protein stability index is reported as 3.87. In the case of N13F, the protein stability index is reported as 2.96. In the case of N13C, the protein stability index is reported as 3.15. With N13E the protein stability index was 4.1. A10I showed a protein stability index of 2.71. For A10P, the protein stability index was 4.52. With A10Y the protein stability index was 1.87. In the case of A10D, the protein stability index is reported as 4.49. A10G gave a protein stability index of 3.52. With A10T the protein stability index was 3.88. In the case of A10V, the protein stability index is reported as 3.38. With A10L the protein stability index was 2.57. For A10K, the protein stability index was 3.49. For A10N, the protein stability index was 4.07. For A10Q, the protein stability index was 2.25. For A10E, the protein stability index was 4. Work on A10C yielded a protein stability index of 3.46. K12Y showed a protein stability index of 3.24. K12H gave a protein stability index of 3.1. K12L showed a protein stability index of 2.65. Variant K12N has a protein stability index of 3.82. Work on K12G yielded a protein stability index of 4. Variant K12Q has a protein stability index of 3.61. With K12A the protein stability index was 3.68. K12M gave a protein stability index of 3.37. K12E showed a protein stability index of 3.71. K12P showed a protein stability index of 4.24. For K12V, the protein stability index was 4.38. Variant K12F has a protein stability index of 2.59. In the case of K12C, the protein stability index is reported as 2.9. K12T gave a protein stability index of 3.75.
